These results are taken from patent US20080113383A1, “Hif Prolyl Hydroxylase Activity Assay” (Fibro Gen, Inc., priority 2004, published 2008).

Where “and” joins values, the source holds several entries; their conditions need not be identical. Equal values may be shown once. Where no end group is shown, it is not given here. [ ]: non-standard residue; d: D form. ΔPro = O=C(O)[C@@H]1C=CCN1; Aze = O=C(O)[C@@H]1CCN1

What all share (type): biochemical
The target in assay [1] is EGLN2 (Homo sapiens, UniProt Q96KS0). As to the kind of experiment: Standard reaction (I): EGLN enzyme activity with hydroxylatable peptide substrate, 14CO2 release from 2-oxo[1-14C]glutaric acid. The following applies: Table 1; enzyme activity relative to control peptide DTD20; 37° C., 20 minutes, pH 7.4. The text has this: (§1) Enzyme activity can be measured by monitoring the consumption of one or more reaction substrates, or accumulation of one or more reaction products. For example, enzyme activity in either the standard reaction (I) or the modified reaction (II) can be measured using a modified version of a method described by Kivirikko and Myllyla (1982, Methods Enzymol 82:245-304), which is based on the decarboxylation of 2-oxo[1-^14C]glutaric acid. In this method, radioactive ^14CO2 produced during the reaction is captured on base-impregnated filter papers and the captured radioactivity determined by liquid scintillation counting. In a particular embodiment, enzyme activity in standard reaction (I) was measured as described in Example 2 (infra).
(§2) In DLD19, methionine (M) residues were changed to alanine (A) residues due to potential oxidation of methionine during the assay reaction. Peptides used in the assay may additionally contain N-terminal and/or C-terminal blocking groups, e.g., N-terminal acetyl groups, C-terminal amide groups, etc. Enzyme activity in the presence of substrate peptides is provided supra as percent enzyme activity relative to enzyme activity in the presence of control peptide DTD20.
(§3) In all experiments, percent enzyme activity, e.g., as measured by substrate turnover, was less than 30% to insure all data obtained were in the linear range. Enzyme activity in standard reaction (I) was measured in a reaction volume of 1 mL containing EGLN enzyme preparation (10-400 μL), 0.05 μmole hydroxylatable peptide substrate, 0.1 μmole of 2-oxo[1-^14C]glutaric acid (160,000 dpm), 1 μmole of ascorbic acid, 60 μg of catalase and 50 μmole of HEPES buffer adjusted to pH 7.4 at 25° C. Optionally, 0.04 μmole FeSO4 was also be added to the reaction mix. Reactions were carried out at 37° C. for 20 minutes. In various reactions, ascorbate was replaced by 0.1 to 15 mM potassium ferrocyanide. Results are provided in Table 1 (supra) and FIGS. 3 and 4.

In assay [2] the target is T1, EGLN1 (Homo sapiens, UniProt Q9GZT9). The description is as above. To be noted: for specificity of peptide for EGLN1, EGLN2 and EGLN3 compared: standard reaction (I) peptides, from Table 1 and FIGS. 3, 4.
Excerpt: as §1, §2, §3

The target in assay [3] is EGLN3 (Homo sapiens, UniProt Q9H6Z9). Described as above.
Excerpt: as §1, §2, §3

In assay [4] the target is T1, EGLN1. Nature of the assay: Modified reaction (II): EGLN enzyme activity with non-hydroxylatable proline-analog peptide and reducing agent. The following applies: modified reaction (II) peptides, from Tables 3, 4 and FIGS. 3, 4. The text has this: The peptides shown in Table 3, which retain measurable activity in the present assay, are specifically contemplated for use in assays disclosed herein. These peptides are used in a reaction additionally requiring co-substrate 2-oxoglutarate and a reducing agent, e.g., ascorbate; an EGLN enzyme, and oxygen, as described below. The reaction may also include Fe^2+. The reaction proceeds according to the modified reaction (II), in which 2-oxoglutarate is converted to succinate and carbon dioxide, and the reducing agent is subsequently oxidized, e.g., ascorbate is oxidized to dehydroascorbate. […]
In still other embodiments, enzyme activity within the modified reaction (II) may be measured by disappearance of the reduced form of the reducing agent or appearance of the oxidized form of the agent. […] For example, when ascorbate is used in modified reaction (II), disappearance of ascorbate and/or appearance of dehydroascorbate may be measured, e.g., using HPLC. In particular embodiments, ascorbate may be added to modified reaction (II) in limiting quantity, and ascorbate is regenerated during the reaction with concomitant oxidation of NADH to NAD^+ using a modification of the method described by Diliberto and Allen (1981, J Biol Chem 256:3385-3393). […] HIF-PH activity is measured indirectly by consumption of NADH, which produces a reduction in absorbance at a wavelength of 340 nm. […]

[5] abbreviates: Table 1, enzyme activity relative to control peptide DTD20, 37° C., 20 minutes, pH 7.4.

Chain of EGLN3 (Q9H6Z9 whole entry): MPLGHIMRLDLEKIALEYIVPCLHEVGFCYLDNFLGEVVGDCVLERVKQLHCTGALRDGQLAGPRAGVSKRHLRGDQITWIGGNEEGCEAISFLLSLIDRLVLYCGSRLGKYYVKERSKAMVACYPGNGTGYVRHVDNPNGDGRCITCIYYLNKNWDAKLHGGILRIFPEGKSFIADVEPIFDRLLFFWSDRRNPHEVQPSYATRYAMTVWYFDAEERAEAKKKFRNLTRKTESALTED
T1 sequence (Q9GZT9 whole entry): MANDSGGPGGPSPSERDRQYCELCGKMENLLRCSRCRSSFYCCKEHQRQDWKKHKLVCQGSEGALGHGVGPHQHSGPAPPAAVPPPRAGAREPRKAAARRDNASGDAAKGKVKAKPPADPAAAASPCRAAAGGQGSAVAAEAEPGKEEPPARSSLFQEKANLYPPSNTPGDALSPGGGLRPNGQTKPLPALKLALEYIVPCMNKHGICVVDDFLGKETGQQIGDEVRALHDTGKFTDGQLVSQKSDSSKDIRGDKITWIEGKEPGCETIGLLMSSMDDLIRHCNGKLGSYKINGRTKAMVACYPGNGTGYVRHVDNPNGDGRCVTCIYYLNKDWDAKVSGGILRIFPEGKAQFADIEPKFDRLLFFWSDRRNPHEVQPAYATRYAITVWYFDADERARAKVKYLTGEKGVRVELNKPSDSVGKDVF
Chain of EGLN2 (Q96KS0 whole entry): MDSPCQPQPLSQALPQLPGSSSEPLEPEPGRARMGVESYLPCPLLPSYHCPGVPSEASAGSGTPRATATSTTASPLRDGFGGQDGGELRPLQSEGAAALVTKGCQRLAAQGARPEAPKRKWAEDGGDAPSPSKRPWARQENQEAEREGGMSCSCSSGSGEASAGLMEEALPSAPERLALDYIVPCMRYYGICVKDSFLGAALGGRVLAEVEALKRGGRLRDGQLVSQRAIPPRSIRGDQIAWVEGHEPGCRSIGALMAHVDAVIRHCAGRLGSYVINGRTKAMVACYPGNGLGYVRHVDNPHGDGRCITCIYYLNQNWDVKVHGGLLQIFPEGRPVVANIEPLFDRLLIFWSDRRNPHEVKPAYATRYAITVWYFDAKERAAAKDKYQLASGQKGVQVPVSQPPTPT

With 45 (DTDLDTEALAPYIPADDDFQ) [compound 45], the “Activity (%) EGLN2” value in assay [1] was 20.49% and 18.04%. In addition, the “Activity (%) EGLN1” value in assay [2] (setting [5]) is 25.67% and 23.36%. In assay [3] (setting [5]), the “Activity (%) EGLN3” value was 64.55% and 60.23%.
For the substance “DTDLDWEAVSpYIPADDDFQ (DTDLDWEAVSPYIPADDDFQ; not fully specified (residue 11); printed as DTDLDWEAVSpYIPADDDFQ) [SEQ ID NO 91]”, the “hydroxylation of peptide by EGLN1” value in assay [2] is “readily hydroxylated”. For the same substance, the “hydroxylation of peptide by EGLN3” value in assay [3] was “readily hydroxylated”.
On to “DTDLDWEMVSpYIPADDDFQ (DTDLDWEMVSPYIPADDDFQ; not fully specified (residue 11); printed as DTDLDWEMVSpYIPADDDFQ) [SEQ ID NO 90]”, for which the “hydroxylation of peptide by EGLN1” value in assay [2] is given as “readily hydroxylated”. Further, the “hydroxylation of peptide by EGLN3” value in assay [3] is “readily hydroxylated”.
As for “DTDLDLEALA4YIPADDDFQ (DTDLDLEALA[ΔPro]YIPADDDFQ) [SEQ ID NO 62, 4 = 3,4-dehydroproline in place of the hydroxylated proline]”, in assay [4], the “specificity of proline-analog peptide for EGLN1, EGLN2 and EGLN3 compared” value is “higher specificity for EGLN1 and EGLN2 than for EGLN3”.
“DTDLDFEALApYIPADDDFQ (DTDLDFEALAPYIPADDDFQ; not fully specified; printed as DTDLDFEALApYIPADDDFQ) [SEQ ID NO 19]”: in assay [2], the “specificity of peptide for EGLN1, EGLN2 and EGLN3 compared” value is “higher specificity for EGLN3 than for EGLN1 and EGLN2”.
As to “DTDLDYEMIApYIPADDDFQ (DTDLDYEMIAPYIPADDDFQ; not fully specified (residue 11); printed as DTDLDYEMIApYIPADDDFQ) [SEQ ID NO 89]”, the “hydroxylation of peptide by EGLN1” value in assay [2] is listed as “readily hydroxylated”. The “hydroxylation of peptide by EGLN3” value in assay [3] is given as “readily hydroxylated”.
On to “DTDLDWEMVApYIPADDDFQ (DTDLDWEMVAPYIPADDDFQ; not fully specified (residue 11); printed as DTDLDWEMVApYIPADDDFQ) [SEQ ID NO 92]”, for which the “hydroxylation of peptide by EGLN1” value in assay [2] was “readily hydroxylated”. In assay [3], the “hydroxylation of peptide by EGLN3” value is given as “readily hydroxylated”.
Turning to “DTDLDLEALA8YIPADDDFQ (DTDLDLEALA[Aze]YIPADDDFQ) [SEQ ID NO 63, 8 = L-azetidine-2-carboxylate in place of the hydroxylated proline]”, the “specificity of proline-analog peptide for EGLN1, EGLN2 and EGLN3 compared” value in assay [4] is “higher specificity for EGLN3 than for EGLN1 and EGLN2”.
“DTDLDIEALApYIPADDDFQ (DTDLDIEALAPYIPADDDFQ; not fully specified; printed as DTDLDIEALApYIPADDDFQ) [SEQ ID NO 24]”: in assay [2], the “specificity of peptide for EGLN1, EGLN2 and EGLN3 compared” value was “higher specificity for EGLN3 than for EGLN1 and EGLN2”.
“DTDLDLEARApYIPADDDFQ (DTDLDLEARAPYIPADDDFQ; not fully specified; printed as DTDLDLEARApYIPADDDFQ) [SEQ ID NO 15]”: in assay [2], the “specificity of peptide for EGLN1, EGLN2 and EGLN3 compared” value is “higher specificity for EGLN1 and EGLN2 than for EGLN3”.
On the same count and under the same terms, in the case of “DTDLDMEALApYIPADDDFQ (DTDLDMEALAPYIPADDDFQ; not fully specified (residue 11); printed as DTDLDMEALApYIPADDDFQ) [SEQ ID NO 13]” it was “higher specificity for EGLN3 than for EGLN1 and EGLN2”.
